17 variants from the supplement of paper PMC7125110 can be followed below.

± gives the standard error. For some of these results: Variants at the floor of the assay were thinned out.

The chains are these.
B1: glmS ribozyme (parent)
chain: AUAAAAGCGCCAGAACUACAGAAAUGUAGUUGACGAGGAGGAGGUUUAUCGAAUUUUCGGCGGAUGCCUCCAAA

Holding throughout (details): with glucosamine-6-phosphate
In series [1] the parent is B1. Kind of series: kcat; higher = faster cleavage; RNA array. The method in brief: (§1)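 Tiles of sequenced MiSeq chips were imaged over ~14 h at 37 °C. On them, barcoded ribozyme variants had been transcribed in situ by E. coli RNA polymerase and were tracked via a hybridised Cy3 probe while glucosamine-6-phosphate (40 μM to 10 mM) in HEPES/KCl/Mg(OAc)2 buffer flowed in. Per-tile medians, normalised to baseline and to non-cleaving reference variants, were fit to one- or two-exponential decays for kobs, and weighted Michaelis–Menten fits gave kcat and KM.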

Series [2] covers variants of B1. Kind of series: KM; higher = weaker cofactor use; RNA array. An outline of the steps:
as §1

Series [3] covers variants of B1. Kind of series: self-cleavage kobs at 640 uM GlcN6P; higher = faster cleavage; RNA array. An outline of the steps:
as §1

Series [4] covers variants of B1. Kind of series: self-cleavage kobs at 2500 uM GlcN6P; higher = faster cleavage; RNA array. An outline of the steps:
as §1

In series [5] the parent is B1. Kind of series: self-cleavage kobs at 10000 uM GlcN6P; higher = faster cleavage; RNA array. An outline of the steps: as §1
In series [6] the parent is B1. Description: self-cleavage kobs at 40 uM GlcN6P; higher = faster cleavage; RNA array. An outline of the steps:
as §1

The variants in series [7] derive from B1. Kind of series: self-cleavage kobs at 160 uM GlcN6P; higher = faster cleavage; RNA array. The method in brief: as §1

With A15U U49G, in the series with glucosamine-6-phosphate [1], the kcat was 9.5e-05 ± 7.9e-06 s⁻¹. Also, the KM in the series with glucosamine-6-phosphate [2] was determined as 1730 ± 470 µM. The “self-cleavage kobs at 640 uM GlcN6P” value with glucosamine-6-phosphate [3] was found to be 2.05e-05 ± 9.2e-06 s⁻¹. Also, the “self-cleavage kobs at 2500 uM GlcN6P” value with glucosamine-6-phosphate [4] was 5.99e-05 ± 8e-06 s⁻¹. Moreover, the “self-cleavage kobs at 10000 uM GlcN6P” value with glucosamine-6-phosphate [5] worked out at 7.95e-05 ± 8.2e-06 s⁻¹.
Take G32A U69G: the kcat with glucosamine-6-phosphate [1] was found to be 6.22e-05 ± 1.2e-05 s⁻¹. Further, the “self-cleavage kobs at 40 uM GlcN6P” value with glucosamine-6-phosphate [6] was determined as 3.77e-05 ± 1.4e-05 s⁻¹. The “self-cleavage kobs at 640 uM GlcN6P” value with glucosamine-6-phosphate [3] was found to be 0.000117 ± 1.8e-05 s⁻¹. In the series with glucosamine-6-phosphate [4], the “self-cleavage kobs at 2500 uM GlcN6P” value is 5.99e-05 ± 9.1e-06 s⁻¹. The “self-cleavage kobs at 10000 uM GlcN6P” value with glucosamine-6-phosphate [5] is 5.26e-05 ± 8.5e-06 s⁻¹.
Consider G29C C70A, for which, in the series with glucosamine-6-phosphate [1], the catalytic constant (kcat) stood at 4.11e-05 ± 9.8e-06 s⁻¹. In addition, the “self-cleavage kobs at 160 uM GlcN6P” value in the series with glucosamine-6-phosphate [7] stood at 2.35e-05 ± 1.1e-05 s⁻¹. Also, in the series with glucosamine-6-phosphate [3], the “self-cleavage kobs at 640 uM GlcN6P” value came to 5.19e-05 ± 9.6e-06 s⁻¹. Moreover, in the series with glucosamine-6-phosphate [4], the “self-cleavage kobs at 2500 uM GlcN6P” value worked out at 4.33e-05 ± 9.8e-06 s⁻¹.
On to U31G U65G, for which the turnover number (kcat) with glucosamine-6-phosphate [1] was 0.00259 ± 0.00018 s⁻¹. Also, the KM in the series with glucosamine-6-phosphate [2] is 4140 ± 440 µM. For the same variant, the “self-cleavage kobs at 160 uM GlcN6P” value in the series with glucosamine-6-phosphate [7] is 9.35e-05 ± 1.7e-05 s⁻¹. The “self-cleavage kobs at 640 uM GlcN6P” value in the series with glucosamine-6-phosphate [3] came to 0.000375 ± 5.5e-05 s⁻¹. The “self-cleavage kobs at 2500 uM GlcN6P” value with glucosamine-6-phosphate [4] came to 0.000924 ± 0.00017 s⁻¹. In addition, in the series with glucosamine-6-phosphate [5], the “self-cleavage kobs at 10000 uM GlcN6P” value was found to be 0.00184 ± 0.00019 s⁻¹.
Consider A14U U57C, for which the turnover number (kcat) with glucosamine-6-phosphate [1] amounted to 7.65e-05 ± 1.4e-05 s⁻¹. For the same variant, in the series with glucosamine-6-phosphate [4], the “self-cleavage kobs at 2500 uM GlcN6P” value came out at 5.75e-05 ± 1.1e-05 s⁻¹. In addition, the “self-cleavage kobs at 10000 uM GlcN6P” value with glucosamine-6-phosphate [5] came to 6.38e-05 ± 1.2e-05 s⁻¹.
Turning to G32A C50A, the kcat with glucosamine-6-phosphate [1] was less than 1e-05 s⁻¹.
As to A12C A14U, the kcat with glucosamine-6-phosphate [1] was 0.000416 ± 3.2e-05 s⁻¹. In the series with glucosamine-6-phosphate [2], the KM worked out at 2270 ± 350 µM. In addition, the “self-cleavage kobs at 160 uM GlcN6P” value with glucosamine-6-phosphate [7] amounted to 3.61e-05 ± 9.3e-06 s⁻¹. For the same variant, the “self-cleavage kobs at 640 uM GlcN6P” value in the series with glucosamine-6-phosphate [3] stood at 9.07e-05 ± 1e-05 s⁻¹. Further, the “self-cleavage kobs at 2500 uM GlcN6P” value with glucosamine-6-phosphate [4] stood at 0.000202 ± 2.4e-05 s⁻¹. Besides, the “self-cleavage kobs at 10000 uM GlcN6P” value in the series with glucosamine-6-phosphate [5] came out at 0.000348 ± 2.9e-05 s⁻¹.
Regarding U45C, the kcat with glucosamine-6-phosphate [1] amounted to 0.00494 ± 0.00052 s⁻¹. Also, in the series with glucosamine-6-phosphate [2], the Michaelis constant (KM) was found to be 2740 ± 390 µM. In addition, in the series with glucosamine-6-phosphate [6], the “self-cleavage kobs at 40 uM GlcN6P” value was 7.81e-05 ± 1.8e-06 s⁻¹. Also, the “self-cleavage kobs at 160 uM GlcN6P” value with glucosamine-6-phosphate [7] is 0.000232 ± 9.5e-06 s⁻¹. In addition, in the series with glucosamine-6-phosphate [3], the “self-cleavage kobs at 640 uM GlcN6P” value was determined as 0.000897 ± 2.2e-05 s⁻¹. In addition, in the series with glucosamine-6-phosphate [4], the “self-cleavage kobs at 2500 uM GlcN6P” value worked out at 0.00247 ± 6.8e-05 s⁻¹. Further, the “self-cleavage kobs at 10000 uM GlcN6P” value with glucosamine-6-phosphate [5] is 0.00385 ± 9.4e-05 s⁻¹.
As to U46G G66A C70G, the kcat with glucosamine-6-phosphate [1] was determined as 0.000845 ± 0.00032 s⁻¹. Moreover, in the series with glucosamine-6-phosphate [6], the “self-cleavage kobs at 40 uM GlcN6P” value amounted to 6.36e-05 ± 1.7e-05 s⁻¹. Moreover, the “self-cleavage kobs at 640 uM GlcN6P” value with glucosamine-6-phosphate [3] is 0.000267 ± 6.1e-05 s⁻¹. Also, in the series with glucosamine-6-phosphate [4], the “self-cleavage kobs at 2500 uM GlcN6P” value is 0.00046 ± 0.00016 s⁻¹. In addition, the “self-cleavage kobs at 10000 uM GlcN6P” value with glucosamine-6-phosphate [5] came to 0.000907 ± 0.00016 s⁻¹.
As for C50U C71G, the catalytic constant (kcat) with glucosamine-6-phosphate [1] was found to be 3.46e-05 ± 1.4e-05 s⁻¹. Also, in the series with glucosamine-6-phosphate [3], the “self-cleavage kobs at 640 uM GlcN6P” value came out at 4.43e-05 ± 1e-05 s⁻¹.
U56G C71G: the kcat with glucosamine-6-phosphate [1] is 0.000632 ± 0.00018 s⁻¹. The “self-cleavage kobs at 40 uM GlcN6P” value with glucosamine-6-phosphate [6] was 6.71e-05 ± 1.8e-05 s⁻¹. Further, the “self-cleavage kobs at 160 uM GlcN6P” value in the series with glucosamine-6-phosphate [7] was found to be 0.00014 ± 2.1e-05 s⁻¹. Also, in the series with glucosamine-6-phosphate [3], the “self-cleavage kobs at 640 uM GlcN6P” value was 0.000271 ± 4.6e-05 s⁻¹. Besides, in the series with glucosamine-6-phosphate [4], the “self-cleavage kobs at 2500 uM GlcN6P” value worked out at 0.000512 ± 0.0001 s⁻¹. Besides, the “self-cleavage kobs at 10000 uM GlcN6P” value with glucosamine-6-phosphate [5] is 0.000942 ± 0.00021 s⁻¹.
As to U47G A64G, the kcat in the series with glucosamine-6-phosphate [1] amounted to 0.0089 ± 0.0018 s⁻¹. Further, in the series with glucosamine-6-phosphate [2], the Michaelis constant (KM) is 1570 ± 460 µM. Further, the “self-cleavage kobs at 40 uM GlcN6P” value in the series with glucosamine-6-phosphate [6] was 0.000278 ± 4.5e-05 s⁻¹. In addition, the “self-cleavage kobs at 160 uM GlcN6P” value in the series with glucosamine-6-phosphate [7] came out at 0.000742 ± 0.00017 s⁻¹. For the same variant, in the series with glucosamine-6-phosphate [3], the “self-cleavage kobs at 640 uM GlcN6P” value came out at 0.00203 ± 0.00049 s⁻¹. The “self-cleavage kobs at 2500 uM GlcN6P” value in the series with glucosamine-6-phosphate [4] worked out at 0.00542 ± 0.0013 s⁻¹. Moreover, the “self-cleavage kobs at 10000 uM GlcN6P” value in the series with glucosamine-6-phosphate [5] was 0.00828 ± 0.0015 s⁻¹.
Take G43C C68A: in the series with glucosamine-6-phosphate [1], the kcat came out at 1.06e-05 ± 2.2e-06 s⁻¹. For the same variant, the “self-cleavage kobs at 40 uM GlcN6P” value with glucosamine-6-phosphate [6] was less than 1e-05 s⁻¹.
For the variant G44C C70U, the turnover number (kcat) in the series with glucosamine-6-phosphate [1] was less than 1e-05 s⁻¹. Moreover, the “self-cleavage kobs at 40 uM GlcN6P” value with glucosamine-6-phosphate [6] is less than 1e-05 s⁻¹.
On to A64G C68A, for which the catalytic constant (kcat) in the series with glucosamine-6-phosphate [1] was less than 1e-05 s⁻¹.
Consider C16U C70A, for which the catalytic constant (kcat) in the series with glucosamine-6-phosphate [1] was 0.000203 ± 1.9e-05 s⁻¹. The Michaelis constant (KM) with glucosamine-6-phosphate [2] was found to be 296 ± 79 µM. The “self-cleavage kobs at 160 uM GlcN6P” value with glucosamine-6-phosphate [7] turned out to be 7.15e-05 ± 9.6e-06 s⁻¹. The “self-cleavage kobs at 640 uM GlcN6P” value in the series with glucosamine-6-phosphate [3] turned out to be 0.000148 ± 2.1e-05 s⁻¹. In the series with glucosamine-6-phosphate [4], the “self-cleavage kobs at 2500 uM GlcN6P” value was 0.000204 ± 2.2e-05 s⁻¹. The “self-cleavage kobs at 10000 uM GlcN6P” value with glucosamine-6-phosphate [5] is 0.000177 ± 2e-05 s⁻¹.
On to G40A U57A, for which the kcat with glucosamine-6-phosphate [1] is 3.08e-05 ± 6.4e-06 s⁻¹. Further, the “self-cleavage kobs at 40 uM GlcN6P” value with glucosamine-6-phosphate [6] is less than 1e-05 s⁻¹. Further, the “self-cleavage kobs at 160 uM GlcN6P” value in the series with glucosamine-6-phosphate [7] was less than 1e-05 s⁻¹. Besides, the “self-cleavage kobs at 2500 uM GlcN6P” value with glucosamine-6-phosphate [4] came out at 3.99e-05 ± 1.3e-05 s⁻¹. In addition, the “self-cleavage kobs at 10000 uM GlcN6P” value in the series with glucosamine-6-phosphate [5] was determined as 2.63e-05 ± 9.5e-06 s⁻¹.

The term kcat denotes the maximal rate divided by the concentration of active sites. The term KM denotes the concentration of substrate that gives half-maximal velocity.
